Where a SMILES comes first, the peptide text is derived from it. Where no end group is shown, it is not given here. The star is where a group is joined. DTPA = O=C(O)CN(CCN(CC(=O)O)CC(=O)O)CCN(CC(=O)O)CC(=O)*

The text below walks through data of patent publication US20040229289A1, “Antigen binding peptides (abtides) from peptide libraries” (Cytogen Corporation, priority 1994, published 2004).

Data set [1] can be described thus: in vivo. The conditions noted are these: male, C.B-17/Icr Tac-SCID, mouse, iv, 2 ug, total radioactivity. More on the design: species or system SCID mice. How it is done:
(§1) Male SCID mice (C.B-17/Icr Tac—SCID mice) were purchased from Fox Chase (Philadelphia, Pa.) or. Taconic Farms (Germantown, N.Y.), were housed in sterilized cages with filter bonnets, and were given autoclaved laboratory rodent chow (Purina, St. Louis, Mo.), and filtered tap water ad libitum.
(§2) 1×10^7 cells of the human prostate tumor line LNCaP (Horoszewicz et al., 1987, Anticancer Res. 7:927-936) were injected subcutaneously (s.c.) into the left rear flank of the mice. The cells were growing in exponential phase before harvesting and had been resuspended in 0.2 mL of sterile saline. Tumors were grown in the mice for 2-3 months before abtides were injected into the mice.
(§3) For biodistribution studies, abtides were modified at their amino termini with the chelator diethylene-triamine-pentaacetic acid anhydride (DTPA-A) (Sigma, St. Louis, Mo.). Approximately 2 mg of each abtide was initially dissolved in an appropriate volume of 0.1% acetic acid and then 1 mL of 0.1 M sodium bicarbonate, pH 8.0, was added. Two mg of DTPA-A was suspended in 100 AL of dimethylsulfoxide (DMSO), and 10 μL of the abtide solution added to this DTPA-A suspension. […]
(§4) In one experiment, abtide clone 14-DPTA-^111In (see Table 2) was injected intravenously (i.v.) into two groups of mice bearing measurable LNCaP xenografts. […] Thus, the total injected dose of radioactivity was about 120-140×10^6 cpm.
(§5) The first group of mice was sacrificed 2 hours after injection of the abtide and tissues were dissected for analysis. […] Dissected tissues were weighed and the amount of ^111In in them was determined by gamma counting. The cpm per gram of each tissue was calculated by dividing the cpm of ^111In found in the tissue by the weight in grams of the tissue. […]
(§6) In another experiment, abtide clone 17-DPTA-^111In (see Table 2) was injected intravenously into four SCID mice bearing measurable LNCaP xenografts. […] Thus, the total injected dose of radioactivity was about 100-110×10^6 cpm. […]

The subject of data set [2] is human prostate carcinoma LNCaP xenograft tumors. Briefly: in vivo. More on the design: species or system SCID mice. The conditions noted are these: mouse, iv. How it is done:
as §1, §2, §3, §4, §5, §6

The target in data set [3] is T1, native 7E11-C5 antigen in LNCaP lysates (Homo sapiens, UniProt Q04609).
T1 construct: endogenous in cells; host or cells: LNCaP cell lysate
T1 sequence (Q04609 whole entry): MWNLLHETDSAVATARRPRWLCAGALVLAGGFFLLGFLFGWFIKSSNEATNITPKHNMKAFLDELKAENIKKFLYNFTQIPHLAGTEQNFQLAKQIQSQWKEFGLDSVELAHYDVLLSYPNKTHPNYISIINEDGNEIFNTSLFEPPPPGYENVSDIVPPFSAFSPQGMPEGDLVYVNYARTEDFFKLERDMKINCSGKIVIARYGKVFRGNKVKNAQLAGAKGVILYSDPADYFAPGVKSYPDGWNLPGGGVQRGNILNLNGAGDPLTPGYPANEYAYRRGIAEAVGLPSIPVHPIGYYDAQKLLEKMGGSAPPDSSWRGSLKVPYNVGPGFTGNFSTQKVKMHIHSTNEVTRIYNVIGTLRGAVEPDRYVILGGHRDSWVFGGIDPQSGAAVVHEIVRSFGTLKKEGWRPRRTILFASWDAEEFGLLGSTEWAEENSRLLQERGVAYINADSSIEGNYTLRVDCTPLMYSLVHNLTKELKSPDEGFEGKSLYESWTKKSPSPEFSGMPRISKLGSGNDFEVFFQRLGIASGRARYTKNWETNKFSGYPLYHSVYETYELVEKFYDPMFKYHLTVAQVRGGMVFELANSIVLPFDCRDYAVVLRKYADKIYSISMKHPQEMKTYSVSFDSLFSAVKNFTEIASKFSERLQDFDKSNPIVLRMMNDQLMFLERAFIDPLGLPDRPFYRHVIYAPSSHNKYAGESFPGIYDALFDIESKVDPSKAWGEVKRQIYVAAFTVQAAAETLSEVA
Briefly: Sandwich assay: capture of antigen from LNCaP cell lysate. Type of data set: binding. Conditions: detection with biotinylated 7E11-C5, FIG. 6. How it is done:
A sandwich assay using the LNCaP antigen was performed. The wells of a microtiter plate were coated with either monoclonal antibody 7E11-C5, the clone 14 7E11-C5 abtide, or, as a negative control, BSA. Coating and washing was as for-the assay described in Section 6.1.2.2. One hundred microliters of a lysate of LNCaP cells was added to the wells. The LNCaP lysate was prepared as described in PCT publication WO 94/18318, dated Aug. 18, 1994. Following capture of the lysate on the plate, 100 μL of a 5 μg/mL solution of biotinylated 7E11-CS monoclonal antibody was added to each well. Following incubation and washing as in Section 6.1.2.2, a 1:2000 dilution of Extravidin-Alkaline Phosphatase (4,250 units/mL) (Sigma, St. Louis, Mo.) in PBS was added to each well and incubated for 1 hour at room temperature. Following incubation, the wells were washed four times with 1% BSA in PBS and then twice in PBS. One hundred microliters of a 1 mg/mL solution of p-nitrophenyl phosphate in diethanol amine (DEA) buffer (both from Kirkegaard & Perry Laboratories, Gaithersburg, Md.) was then added and, after incubation at room temperature for 15-30 minutes, the absorbance of the solutions in the wells was read at 405 nm.
This was a surprising discovery and would not have been predicted by those skilled in the art. […]

In data set [4] the test system is biotinylated 7E11-9.5 mimetope peptide. Description: Dot blot: spotted 7E11-C5 abtides probed with biotinylated mimetope peptide. It is filed as binding. Conditions: 1 μL of 1 mg/mL abtide spotted on nitrocellulose; 0.1 mg/mL mimetope; FIG. 4. How it is done:
In some cases, these abtides were used in a dot blot experiment. In those cases, 1 μL of a 1 mg/mL solution of the 38-residue abtides was spotted onto nitrocellulose (0.2 μm or 0.45 μm, Schleicher & Schuell, Keene, NH) strips or circles. After drying (about 1/2 hour), the nitrocellulose was blocked for 1 hour in a solution of 1% BSA in PBS. The nitrocellulose was then allowed to incubate in approximately 5 mL of a solution of 0.1 mg/mL of a biotinylated 7E11-9.5 mimetope peptide (biotin-LYANPGMYSRLHSPA). This mimetope peptide was one of those described in Section 6.1.1 above that were synthesized based upon the nine peptides that were identified in the screening of Section 6.1.1 above. After an hour, the nitrocellulose was washed approximately 5 times with a solution of 1% BSA in PBS. A 1:2000 dilution of Extravidin-Alkaline Phosphatase (4,250 units/mL) (Sigma, St. Louis, Mo.) in PBS was then added and allowed to incubate for 1 hour, after which the nitrocellulose was again washed extensively. Finally, a solution of 5-bromo-4-chloro-3-indolyl phosphate (0.15 mg/mL) and nitro blue tetrazolium (0.3 mg/mL) (Sigma, St Louis, Mo.) (BCIP/NBT) was added as an enzyme substrate. Color was allowed to develop […].
In FIG. 4, the 7E11-C5 abtides known as clone 14, clone 17, clone 15, clone 16, and clone 13 were tested for their ability to bind the biotinylated 7E11-9.5 mimetope peptide. Also tested, as a positive control, was the monoclonal antibody 7E11-C5. 7E11-C5 was spotted onto the region marked 351 in FIG. 4.

Data set [5] relates to monoclonal antibody 7E11-C5. Briefly: ELISA: biotinylated monoclonal antibody 7E11-C5 binding to immobilized mimetope peptide 7E11-9.5. More on the design: species or system murine. The conditions noted are these: wells coated with 5 μg/mL mimetope; antibody serially diluted from 29 μg/mL; FIG. 2. How it is done:
First the mimetope peptide 7 μl-9.5 was tested for its ability to bind to the monoclonal antibody 7E11-C5. Ninety-six well plates (Immunlon 4, Dynatech, Alexandria, Va.) were coated with 50 μL of a 5 μg/mL solution of the mimetope peptide 7 μl-9.5 and incubated overnight at room temperature. Following incubation, the wells were washed 4 times with 1% BSA in PBS. Biotinylated monoclonal antibody 7E11-C5 was serially diluted with PBS beginning with a concentration of 29 μg/mL and various amounts of the monoclonal antibody were added to the wells that had been coated with the mimetope peptide. After incubating for 1 hour at room temperature, the wells were washed four times with 1% BSA in PBS and 2 times with PBS. Then, 100 AL of a 1:2000 dilution of Extravidin-Alkaline Phosphatase (4,250 units/mL) (Sigma, St. Louis, Mo.) in PBS was added to each well. After an hour, the plate was again washed 4 times with PBS and 100 μL of a 1 mg/mL solution of the enzyme substrate p-nitrophenyl phosphate was added to each well. Color was allowed to develop for 15 minutes to 1 hour and absorbance was read at 405 nm.
(ELISA stands for enzyme-linked immunosorbent assay.)

As for `CC[C@H](C)[C@H](NC(=O)CNC(=O)CN(CCN(CCN(CC(=O)O)CC(=O)O)CC(=O)O)CC(=O)O)C(=O)N[C@H](C(=O)N[C@@H](CC(N)=O)C(=O)N[C@@H](C)C(=O)N[C@@H](CC(N)=O)C(=O)N[C@@H](CC(=O)O)C(=O)N1CCC[C@H]1C(=O)N[C@@H](CC(C)C)C(=O)N1CCC[C@H]1C(=O)N[C@@H](Cc1ccccc1)C(=O)N[C@@H](Cc1c[nH]c2ccccc12)C(=O)N[C@@H](Cc1ccccc1)C(=O)N[C@@H](CCSC)C(=O)N[C@@H](CO)C(=O)N1CCC[C@H]1C(=O)N[C@@H](Cc1ccc(O)cc1)C(=O)N[C@H](C(=O)N1CCC[C@H]1C(=O)NCC(=O)N1CCC[C@H]1C(=O)N[C@@H](C)C(=O)N1CCC[C@H]1C(=O)N[C@H](C(=O)N[C@@H](CC(=O)O)C(=O)N[C@H](C(=O)N[C@@H](CC(N)=O)C(=O)N[C@@H](C)C(=O)N[C@@H](CO)C(=O)N[C@@H](CCCNC(=N)N)C(=O)N[C@@H](C)C(=O)N[C@@H](CC(C)C)C(=O)N[C@H](C(=O)N[C@@H](CO)C(=O)N[C@@H](CC(N)=O)C(=O)N[C@@H](CCC(=O)O)C(=O)N[C@@H](CO)C(=O)NCC(N)=O)C(C)C)[C@@H](C)CC)[C@@H](C)CC)[C@@H](C)O)[C@@H](C)CC` [abtide clone 14-DPTA-^111In, metal not drawn] ({DTPA}-GIINANDPLPFWFMSPYTPGPAPIDINASRALVSNESG-NH2; N-terminus and C-terminus assumed), the tissue to tissue ratio at 2 h in data set [1] worked out at 1.85. For the same compound, the “localization to LNCaP xenograft tumors” value in data set [2] is reported as “specific localization to the tumor”.
With “GIINANDPLPFWFMSPYTPGPAPIDINASRALVSNESG [clone 14]”, in data set [3], the “recognition (capture) of native 7E11-C5 antigen” value is recorded as “capable of recognizing the native 7E11-C5 antigen in LNCaP lysates”. The “binding of biotinylated 7E11-9.5 mimetope peptide in dot blot” value in data set [4] is recorded as “bound the mimetope”.
In the case of “LYANPGMYSRLHSPA (not fully specified (N-terminus, C-terminus)) [7E11-9.5]”, the “binding of monoclonal antibody 7E11-C5 to mimetope (absorbance at 405 nm)” value in data set [5] is “binds to the synthesized mimetope 7E11-9.5 in a concentration dependent manner”.
